Numbering of substitutions follows the chain as printed. Blank lines part the entries; values can stand above or below the binder they belong to.
Assays:
[1] = biological target: T1, hPD-L1-Fc (human, UniProt Q9NZQ7 20-239, limits assumed); test: BLI (Octet K2), hPD-L1-Fc on AHC sensor, sdAb variant in solution; against wild-type KN035
T1 construct: also called PDL1-Fc fusion protein; human PDL1 protein; not shown: Fc part

[2] = biological target: T1, hPD-L1-Fc; test: competitive ELISA, hPD-L1-Fc coated, competitor hPD-1-hIgG-biotin 10 ug/ml; against wild-type KN035

T1 sequence (Q9NZQ7 other isoform, or with tags, fused parts or gaps limits assumed): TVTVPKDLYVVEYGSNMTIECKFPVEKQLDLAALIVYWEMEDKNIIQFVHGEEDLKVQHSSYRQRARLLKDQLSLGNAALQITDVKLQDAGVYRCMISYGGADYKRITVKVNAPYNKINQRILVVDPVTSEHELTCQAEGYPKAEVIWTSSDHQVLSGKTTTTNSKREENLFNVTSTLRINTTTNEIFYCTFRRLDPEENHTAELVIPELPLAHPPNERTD

KD/KD wt [1]: 1.21 ratio
Relative blocking activity (EC50 wt/EC50 m × 100%) [2]: 80%
B1: KN035 sdAb mutant 1 (VHH)
VHH: QVQLQESGGGSVQAGGSLRLSCAASGKMSSRRCMGWFRQAPGKERVGVAAIDSDGTTKYADSMKGRFTISKDNAKNTLDLQMNSLKPEDTAMYYCVADSFEDPTCTLVTSSGAFQYRGQGTQVTVSS
notes: Expressed in HEK293, IMAC purified; not shown: C-terminal His-tag

KD/KD wt [1]: 1.73 ratio
Relative blocking activity (EC50 wt/EC50 m × 100%) [2]: 71%
B2: KN035 sdAb mutant 2 (VHH)
VHH: B1 VHH with E44Q, A50T, K58R, A60V, M63V, V96A
notes: not shown: C-terminal His-tag

KD/KD wt [1]: 2.01 ratio
Relative blocking activity (EC50 wt/EC50 m × 100%) [2]: 91%
B3: KN035 single domain antibody mutant m3 (VHH)
VHH: QVQLQESGGGLVQPGGSLRLSCAASGKMSSRRCMAWFRQAPGKERERVADVNPNSGGSIYNQRFKGRFTISQNNAKSTVYLQMNSLKPEDTAMYYCAADSFEDPTCTLVTSSGAFQYWGQGTQVTVSS
notes: not shown: C-terminal His-tag (obtained 'by the above method')

Source: patent US20190352404A1 (SUZHOU ALPHAMAB, published 2019)
